Source: patent US20260242465A1 (CELSIUS THERAPEUTICS, published 2026)

Experiments:
[1] = molecular target: T1, hFcγRIIA167R (human, UniProt P12318 34-218); test: SPR (Biacore T200), single-cycle kinetics; His-tagged FcγR captured, antibody as analyte; replicate 2
T1 construct: also called FcγRII (167R polymorphism); not shown: His tag
T1 sequence (looked up): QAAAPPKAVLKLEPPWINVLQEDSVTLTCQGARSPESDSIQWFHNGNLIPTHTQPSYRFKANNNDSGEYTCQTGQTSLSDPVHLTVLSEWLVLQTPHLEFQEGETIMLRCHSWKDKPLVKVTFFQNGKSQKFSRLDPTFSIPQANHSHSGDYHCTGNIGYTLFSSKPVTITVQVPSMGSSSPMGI
Description: (§1) Human Fc receptors, FcγRI, FcγRII (both 167R and 167H polymorphisms), FcγRIIB, FcγRIIIA (both 176F and 176V polymorphisms) and FcγRIIIB were obtained from Sino Biological (Beijing, China). FcγR were captured on a CM5 sensor chip pre-coupled using a His capture kit (Cytiva, Uppsala, Sweden) using standard amine chemistry.
(§2) At the start of each cycle, His-tagged Fcγ receptors diluted in HBS-P+ (Cytiva, Uppsala, Sweden) were loaded to a specific RU level. A five point, three-fold dilution range of test antibody without regeneration between each concentration was used for each receptor tested. Antibodies were passed over the chip in increasing concentrations followed by a single dissociation step. Following dissociation, the chip was regenerated with two injections of glycine (pH 1.5).

[2] = molecular target: T2, hFcγRIIIA176V (human, UniProt P08637 17-208); test: as above
T2 construct: Bought; also called FcγRIIIA (176V polymorphism); not shown: His tag
T2 sequence (P08637 17-208 F176V): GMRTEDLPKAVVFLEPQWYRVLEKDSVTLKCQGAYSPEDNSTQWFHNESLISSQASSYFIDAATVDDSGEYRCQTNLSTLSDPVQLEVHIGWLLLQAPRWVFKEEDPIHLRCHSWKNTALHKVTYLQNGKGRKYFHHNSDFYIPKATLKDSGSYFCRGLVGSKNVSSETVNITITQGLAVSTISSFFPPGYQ
Description: as §1, §2

[3] = molecular target: T3, human TREM2-ECD fused to an Fc domain (human, UniProt Q9NZC2 19-174); test: bio-layer interferometry, TREM2-ECD-Fc immobilised on the sensor, antibody in solution, maximum response
T3 construct: extracellular domain; the text tells one result for TREM2-ECD, so they are written as one molecule; also called human TREM2-ECD (BioLegend, 786404 and R&D Systems, 1828-T2-050); not shown: Fc domain
T3 sequence (looked up): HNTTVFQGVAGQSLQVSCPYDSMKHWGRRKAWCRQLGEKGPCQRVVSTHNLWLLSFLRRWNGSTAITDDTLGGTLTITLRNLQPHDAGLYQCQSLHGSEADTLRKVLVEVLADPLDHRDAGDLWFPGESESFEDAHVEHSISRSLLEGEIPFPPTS
Method: In addition to TREM1, the TREM gene family also includes TREM2. […] Without wishing to be bound by any particular theory, TREM1 and TREM2 are thought to play opposing roles in modulating immune responses; see e.g., Sharif and Knapp, Immunobiology, 213(9-10):701-713 (2008). […] Briefly, 10 μg/mL TREM2-ECD fused to an Fc domain was immobilized on a sensor. Sensors were quenched and monitored to establish a baseline. […] The maximum BLI response was measured (FIG. 13).

[4] = molecular target: T4, recombinant hTREM1-chFc1 (human); test: BLI competition; hTREM1-chFc1 on AHC biosensor, antibody titrated 200 to 0.012 nM for 300 s, then 971 nM PGLYRP1 (competitor: PGLYRP1)
T4 construct: the whole entry is named; Captured on Octet AHC biosensors; also called immobilized TREM1-ECD; immobilized TREM1 protein
T4 sequence (Q9NP99 21-205): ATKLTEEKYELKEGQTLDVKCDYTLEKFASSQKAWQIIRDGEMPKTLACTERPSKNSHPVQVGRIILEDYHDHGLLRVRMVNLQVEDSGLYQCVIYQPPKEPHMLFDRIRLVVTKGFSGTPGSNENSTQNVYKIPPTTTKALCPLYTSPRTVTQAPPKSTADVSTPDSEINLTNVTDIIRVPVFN
Method: (§3) The data was fitted with the sigmoidal (four-parameter) nonlinear regression equation. […] The data is from a single experiment that is representative of three replicates.
(§4) Briefly, recombinant hTREM1-chFc1 was immobilized on Octet AHC biosensors and then blocked with 100 μg/mL hIgG1-Fc. […] The incubation time between mAb and immobilized TREM1-ECD is limited to 300 s, thus limiting the amount of antibody that can bind to the immobilized TREM1, particularly at the sub-saturation concentrations.

[5] = molecular target: T1, hFcγRIIA167R; test: SPR (Biacore T200), single-cycle kinetics; replicate 1
Description: as §1, §2

[6] = molecular target: T2, hFcγRIIIA176V; test: as above
Description: as §1, §2

[7] = molecular target: T5, purified human C1q (human, UniProt P02745 23-245; P02746 28-253; P02747 29-245); test: ELISA; antibody coated in serial dilutions, human C1q at 5 µg/ml, anti-C1q-HRP
T5 construct: Purified from HyCult Biotech; also called complement protein C1q
T5 sequence (P02745 23-245 limits assumed, chain 1 of 3): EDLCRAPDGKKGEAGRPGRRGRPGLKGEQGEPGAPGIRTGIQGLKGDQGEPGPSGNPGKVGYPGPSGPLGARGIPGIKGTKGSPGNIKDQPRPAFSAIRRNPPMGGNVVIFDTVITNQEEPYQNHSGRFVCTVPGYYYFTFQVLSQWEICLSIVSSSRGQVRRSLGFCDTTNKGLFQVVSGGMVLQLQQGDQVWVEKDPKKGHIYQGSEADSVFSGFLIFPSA
T5 sequence (P02746 28-253 limits assumed, chain 2 of 3): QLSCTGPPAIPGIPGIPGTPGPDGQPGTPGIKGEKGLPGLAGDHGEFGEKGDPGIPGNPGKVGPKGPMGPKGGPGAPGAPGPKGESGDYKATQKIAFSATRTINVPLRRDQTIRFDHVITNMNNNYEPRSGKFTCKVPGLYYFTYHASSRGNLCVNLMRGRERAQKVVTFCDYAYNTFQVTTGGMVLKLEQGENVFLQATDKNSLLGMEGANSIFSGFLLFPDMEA
T5 sequence (P02747 29-245 limits assumed, chain 3 of 3): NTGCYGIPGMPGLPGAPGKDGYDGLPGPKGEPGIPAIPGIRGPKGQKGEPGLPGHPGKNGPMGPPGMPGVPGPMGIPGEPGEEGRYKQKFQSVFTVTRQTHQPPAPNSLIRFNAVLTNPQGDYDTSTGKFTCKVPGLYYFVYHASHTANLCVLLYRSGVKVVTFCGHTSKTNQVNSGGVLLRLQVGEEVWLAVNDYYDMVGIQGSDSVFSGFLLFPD
Method: Plates were blocked with IX PBS (pH 7.4) with 2% w/v BSA. After blocking, purified human C1q (HyCult Biotech, Wayne, Pennsylvania) at 5 μg/ml was added to the ELISA plates for binding, Plates were washed an anti-C1q-HRP (Abcam, Cambridge, UK) was diluted 1:1000 in blocking buffer and added to the ELISA plates for detection. After washing, TMB microwell peroxidase substrate (Life Technologies) was added for detection. The reaction was stopped with TMB stop solution (VWR, Lutterworth, Leicestershire) after 5 minutes. Absorbance was read at 450 nm using a SpectraMax M3 plate reader (Molecular Devices, Wokingham, UK).

[8] = molecular target: T1, hFcγRIIA167R; test: SPR (Biacore T200), single-cycle kinetics; His-tagged FcγR captured, antibody as analyte; replicate 1
Description: as §1, §2

[9] = molecular target: T2, hFcγRIIIA176V; test: as above
Description: as §1, §2

[10] = molecular target: T1, hFcγRIIA167R; test: SPR (Biacore T200), single-cycle kinetics; replicate 2
Description: as §1, §2

[11] = molecular target: T2, hFcγRIIIA176V; test: as above
Description: as §1, §2

[12] = molecular target: T4, recombinant hTREM1-chFc1; test: bio-layer interferometry blocking assay: hTREM1-chFc1 on AHC biosensors, antibody titrated, then PGLYRP1 (blocked ligand, 971 nM per paragraph 383)
Method: as §3, §4

[13] = molecular target: T6, human TREM2 expressed on HEK293 cells (human, UniProt Q9NZC2 19-230); test: polyspecificity assay; flow cytometry on transfected HEK293 cells
T6 construct: whole, on cells; Named member of the array of more than 6,000 human membrane proteins; also called TREM2 (membrane protein array)
T6 sequence (looked up): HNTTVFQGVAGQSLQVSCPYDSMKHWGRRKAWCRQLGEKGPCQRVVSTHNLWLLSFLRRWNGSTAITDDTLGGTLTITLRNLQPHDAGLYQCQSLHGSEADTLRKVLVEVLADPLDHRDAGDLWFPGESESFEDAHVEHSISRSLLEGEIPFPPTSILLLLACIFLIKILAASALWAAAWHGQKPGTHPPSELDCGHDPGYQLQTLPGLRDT
Description: Transient transfection was used to express an array of each of more than 6,000 human membrane proteins including TREM2 and other TREM family members on the surface of HEK293 cells. […] TMEM178A is an intracellular protein that localizes to the endoplasmic reticulum; see e.g., Decker et al., Proc. Natl. Acad. Sci., 112(51):15654-9 (2015).

[14] = molecular target: T7, cynomolgus monkey TREM1 on neutrophils (cynomolgus monkey); test: flow cytometry of whole blood, free TREM1 on neutrophils (percent of baseline) in cynomolgus monkeys dosed IV once weekly for 14 weeks
T7 construct: Endogenous receptor on neutrophils of dosed animals (receptor occupancy by flow cytometry); also called free TREM1 receptors on neutrophils (cynomolgus)
T7 chain: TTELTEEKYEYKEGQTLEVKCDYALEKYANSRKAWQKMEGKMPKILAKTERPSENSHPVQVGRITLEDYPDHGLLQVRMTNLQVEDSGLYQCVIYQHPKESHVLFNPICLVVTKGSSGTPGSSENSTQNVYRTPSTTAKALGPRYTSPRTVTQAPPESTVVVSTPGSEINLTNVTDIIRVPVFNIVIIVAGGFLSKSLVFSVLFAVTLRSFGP

[15] = molecular target: T8, recombinant monovalent cynomolgus monkey TREM1-ECD (cynomolgus monkey); test: BLI; antibody on AHC sensor, monovalent TREM1-ECD in solution
T8 construct: whole entry named; also called cyno TREM1-ECD
T8 chain: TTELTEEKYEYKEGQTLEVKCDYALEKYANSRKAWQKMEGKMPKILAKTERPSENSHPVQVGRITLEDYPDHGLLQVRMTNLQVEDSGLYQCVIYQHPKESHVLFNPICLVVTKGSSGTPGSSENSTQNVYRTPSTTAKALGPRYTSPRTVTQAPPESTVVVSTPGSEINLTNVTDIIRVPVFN
Description: (§5) Sensors were monitored to establish a baseline.
(§6) The coefficient of determination of the 1:1 model fit to the BLI sensorgrams is represented by the R\hat{ }2 value. Data for human and cynomolgus monkey represents averages across three replicates. Data for pig, dog, rabbit, rat, and mouse represents averages across two replicates.

[16] = molecular target: T9, recombinant monovalent dog TREM1-ECD (dog (Canis familiaris)); test: as above
T9 construct: whole entry named
T9 chain: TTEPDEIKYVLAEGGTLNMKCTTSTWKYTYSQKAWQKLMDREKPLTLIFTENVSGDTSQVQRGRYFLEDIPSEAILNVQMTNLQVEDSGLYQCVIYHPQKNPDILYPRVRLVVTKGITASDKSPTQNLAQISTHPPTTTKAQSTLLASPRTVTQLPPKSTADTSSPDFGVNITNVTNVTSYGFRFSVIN
Description: as §5, §6

[17] = molecular target: T10, recombinant monovalent rabbit TREM1-ECD (rabbit); test: as above
T10 construct: extracellular domain
Description: as §5, §6

[18] = molecular target: T11, recombinant monovalent pig TREM1-ECD (pig (Sus scrofa), UniProt Q6TYI6 21-210); test: as above
T11 construct: whole entry named
T11 sequence: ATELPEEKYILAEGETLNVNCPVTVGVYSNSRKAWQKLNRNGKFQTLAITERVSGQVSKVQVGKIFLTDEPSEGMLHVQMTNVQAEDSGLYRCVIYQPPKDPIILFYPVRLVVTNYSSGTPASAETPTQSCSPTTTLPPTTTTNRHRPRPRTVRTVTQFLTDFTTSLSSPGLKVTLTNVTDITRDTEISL
Description: as §5, §6

[19] = molecular target: T12, recombinant monovalent mouse TREM1-ECD (mouse, UniProt Q9JKE2 21-202); test: as above
T12 construct: whole entry named
T12 sequence: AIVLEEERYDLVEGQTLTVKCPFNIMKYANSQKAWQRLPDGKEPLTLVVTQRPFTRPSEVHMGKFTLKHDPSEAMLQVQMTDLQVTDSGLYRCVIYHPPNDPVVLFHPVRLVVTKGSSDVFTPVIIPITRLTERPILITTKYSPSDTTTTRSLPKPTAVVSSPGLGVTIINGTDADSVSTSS
Description: as §5, §6

- Kd [1]: 28.3 µM
- Kd [2]: 6.49 µM
- binding result [3]: no binding (tested: 3 ug/mL)
- IC50 [4]: 4.5 nM
- Ratio (against Trastuzumab; not defined) [5]: 0.33
- Ratio (against Trastuzumab; not defined) [6]: 0.05
- binding result [7]: no binding
- Kd [8]: 28.4 µM
- Kd [9]: 6.66 µM
- Ratio (against Trastuzumab; not defined) [10]: 0.33
- Ratio (against Trastuzumab; not defined) [11]: 0.05
- IC50 (read off the curve) [12]: ~5 nM
- binding result [13]: no binding (tested: 5 µg/mL)
- binding result [14]: binds
- Kd [15]: 1.9 nM
- Maximum BLI response [15]: 0.343 nm
- Maximum BLI response [16]: 0.006 nm
- Maximum BLI response [17]: 0.005 nm
- Maximum BLI response [18]: 0.013 nm
- Maximum BLI response [19]: 0.005 nm
B1: anti-TREM1 antibody agent clone A (antibody, human IgG1, kappa)
heavy: EVQLVESGGVLVQPGGSLRLSCAASGITFSNSWMSWVRQAPGKGLEWVANIKQDGSEKYYVDSVKGRFTISRDNAKESLFLQMNSLRAEDTAVYYCARGGISTFDIWGQGTMVTVSSASTKGPSVFPLAPSSKSTSGGTAALGCLVKDYFPEPVTVSWNSGALTSGVHTFPAVLQSSGLYSLSSVVTVPSSSLGTQTYICNVNHKPSNTKVDKKVEPKSCDKTHTCPPCPAPPVAGPSVFLFPPKPKDTLMISRTPEVTCVVVDVSHEDPEVKFNWYVDGVEVHNAKTKPREEQYNSTYRVVSVLTVLHQDWLNGKEYKCKVSNKALPAPIEKTISKAKGQPREPQVYTLPPSRDELTKNQVSLTCLVKGFYPSDIAVEWESNGQPENNYKTTPPVLDSDGSFFLYSKLTVDKSRWQQGNVFSCSVMHEALHNHYTQKSLSLSPGK
light: not shown
notes: heavy chain carries the IgG1 constant region with PVAdelG, light chain is kappa; also called anti-TREM1 clone A; Anti-TREM1 Antibody Clone A
